Measurements taken from publication PMC5674899.

What was measured:
[1] = target: GFP-tagged WT NuMA-tail II (aa 1868–2091) (human) (UniProt Q14980); test: ITC
[2] = target: GFP-tagged WT NuMA-tail II (aa 1868–2091) (human) (UniProt Q14980); test: TIRF microscopy of GFP-tagged protein on immobilised microtubules
[3] = target: NuMA-tail (1970–2091)—GFP (human) (UniProt Q14980); test: as above

Kd [1] [nM] | fold reduction of the GFP signal of m1 on microtubules [2] [fold] | fold reduction of the microtubule binding of m17 [3] [fold] | Substance
250 | – | – | Importin-α lacking the Importin-β binding (IBB) domain (aa 70–524), mouse (from UniProt P52293 70-524) (domain or fragment)
2200 | 50 | 80 | 1:1 stoichiometric mixture of full-length Importin-α and Importin-β (from UniProt P52292 1-529; Q14974 1-876) (complex)
